Data reported in PMC2176068, “Hepatoma derived growth factor binds DNA through the N-terminal PWWP domain”.

What was measured:
GST-HDGF [1] = target: T1, GST-HDGF (Homo sapiens, UniProt P51858 1-240); assay: EMSA; 10 mM Tris pH 7.5, 50 mM KCl, 1 mM DTT, 5% glycerol, 0.05% NP-40, 0.1 ug sheared salmon sperm DNA; 1 ug protein, 0.25 pmol probe, 30 min on ice; 5% PAGE in 0.1x TBE; conditions: protein: recombinant, tags: N-terminal GST (pGEX-4T2), blunt
GST-HDGF Δ70-237 = GST-HDGF Δ70-237 (Homo sapiens, UniProt P51858 70-237); assay: as above; conditions: protein: recombinant; tags: N-terminal GST; label: 5' biotin (sense strand); blunt
Chain of GST-HDGF Δ70-237 (P51858 70-237, stated change not applied): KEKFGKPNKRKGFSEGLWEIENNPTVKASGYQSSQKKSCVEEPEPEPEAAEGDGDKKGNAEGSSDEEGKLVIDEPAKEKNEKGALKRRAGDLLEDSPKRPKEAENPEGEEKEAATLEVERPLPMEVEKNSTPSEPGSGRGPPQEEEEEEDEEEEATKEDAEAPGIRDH

His-HDGF-GFP = His-HDGF-GFP (UniProt P51858 1-240); assay: as above; conditions: protein: recombinant; tags: His, GFP; label: 5' biotin (sense strand); blunt
Chain of His-HDGF-GFP (P51858 whole entry): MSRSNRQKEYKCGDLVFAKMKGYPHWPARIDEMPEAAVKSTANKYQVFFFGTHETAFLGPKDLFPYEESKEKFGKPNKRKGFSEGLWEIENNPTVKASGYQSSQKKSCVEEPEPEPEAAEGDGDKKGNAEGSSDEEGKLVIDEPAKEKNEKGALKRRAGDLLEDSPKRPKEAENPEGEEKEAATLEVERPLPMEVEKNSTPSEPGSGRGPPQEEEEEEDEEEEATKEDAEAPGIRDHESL

GST-HDGF Δ1-110 = GST-HDGF Δ1-110 (Homo sapiens, UniProt P51858 1-110); assay: as above; conditions: protein: recombinant; tags: N-terminal GST; label: 5' biotin (sense strand); blunt
Chain of GST-HDGF Δ1-110 (P51858 1-110, stated change not applied): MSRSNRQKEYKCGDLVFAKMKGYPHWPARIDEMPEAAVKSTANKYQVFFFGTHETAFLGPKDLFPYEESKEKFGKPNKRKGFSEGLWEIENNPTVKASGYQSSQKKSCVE

GST-HDGF Δ1-140 = GST-HDGF Δ1-140 (Homo sapiens, UniProt P51858 1-140); assay: as above; conditions: protein: recombinant; tags: N-terminal GST; label: 5' biotin (sense strand); blunt
Chain of GST-HDGF Δ1-140 (P51858 1-140, stated change not applied): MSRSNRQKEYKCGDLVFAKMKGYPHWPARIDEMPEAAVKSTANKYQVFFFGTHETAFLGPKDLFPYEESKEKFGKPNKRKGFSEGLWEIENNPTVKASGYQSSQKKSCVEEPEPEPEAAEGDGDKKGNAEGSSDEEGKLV

TNT-HDGF (untagged) = TNT-HDGF (untagged) (UniProt P51858 1-240); assay: as above; conditions: protein: ivt; tags: none; label: 5' biotin (sense strand); blunt
Chain of TNT-HDGF (untagged) (P51858 whole entry): as the sequence (P51858 whole entry) above

GST-HDGF Δ1-146 = GST-HDGF Δ1-146 (Homo sapiens, UniProt P51858 1-146); assay: as above; conditions: protein: recombinant; tags: N-terminal GST; label: 5' biotin (sense strand); blunt
Chain of GST-HDGF Δ1-146 (P51858 1-146, stated change not applied): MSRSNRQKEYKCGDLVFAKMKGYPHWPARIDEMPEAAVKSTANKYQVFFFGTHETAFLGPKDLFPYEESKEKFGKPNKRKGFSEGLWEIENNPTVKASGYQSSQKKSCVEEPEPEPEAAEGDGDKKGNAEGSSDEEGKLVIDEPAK

GST-HDGF [2] = target: T1, GST-HDGF; assay: competition; 100x unlabeled, labeled 80 bp probe; 10 mM Tris pH 7.5, 50 mM KCl, 1 mM DTT, 5% glycerol, 0.05% NP-40, 0.1 ug sheared salmon sperm DNA; 1 ug protein, 0.25 pmol probe, 30 min on ice; 5% PAGE in 0.1x TBE; conditions: protein: recombinant, tags: N-terminal GST (pGEX-4T2)

T1 sequence (P51858 whole entry): as the sequence (P51858 whole entry) above

B1: 37 bp minimal probe (dsDNA)
DNA 1: CTTGAACTCCTGACCTCAGATGATCCATGTGCCTCGG
DNA 2: CCGAGGCACATGGATCATCTGAGGTCAGGAGTTCAAG
- binding result (GST-HDGF [1]; label: 5' biotin): binds

B2: SMYD1 promoter 80 bp probe (dsDNA)
DNA 1: CAGGCTGGTCTTGAACTCCTGACCTCAGATGATCCATGTGCCTCGGCCTCCCAAGGTGGGGATTACAGGCGTGAGCCACC
DNA 2: GGTGGCTCACGCCTGTAATCCCCACCTTGGGAGGCCGAGGCACATGGATCATCTGAGGTCAGGAGTTCAAGACCAGCCTG
- binding result (GST-HDGF Δ70-237): no binding
- binding result (His-HDGF-GFP): binds
- binding result (GST-HDGF Δ1-110): binds
- binding result (GST-HDGF Δ1-140): binds
- binding result (TNT-HDGF (untagged)): binds
- binding result (GST-HDGF Δ1-146): binds
- binding result (GST-HDGF [1]; label: 5' biotin (sense strand)): binds

B3: 80 bp specific competitor (unlabeled) (dsDNA)
DNA 1: CAGGCTGGTCTTGAACTCCTGACCTCAGATGATCCATGTGCCTCGGCCTCCCAAGGTGGGGATTACAGGCGTGAGCCACC
DNA 2: GGTGGCTCACGCCTGTAATCCCCACCTTGGGAGGCCGAGGCACATGGATCATCTGAGGTCAGGAGTTCAAGACCAGCCTG
- binding result (GST-HDGF [2]; blunt): binds

B4: non-specific competitor (dsDNA)
DNA 1: TGCTGTTGACAGTGAGCGCGGCCAGCTTATAGTCATATATTAGTGAAGCCACAGATGTAATATATGACTATAAGCTGGCCTTGCCTACTGCCTCGGA
DNA 2: TCCGAGGCAGTAGGCAAGGCCAGCTTATAGTCATATATTACATCTGTGGCTTCACTAATATATGACTATAAGCTGGCCGCGCTCACTGTCAACAGCA
- binding result (GST-HDGF [2]): no binding
